B1: Phospholipid-transporting ATPase DRS2 (Saccharomyces cerevisiae), P39524 (parent)
chain: MNDDRETPPKRKPGEDDTLFDIDFLDDTTSHSGSRSKVTNSHANANYIPPSHVLPEETIDLDADDDNIENDVHENLFMSNNHDDQTSWNANRFDSDAYQPQSLRAVKPPGLFARFGNGLKNAFTFKRKKGPESFEMNHYNAVTNNELDDNYLDSRNKFNIKILFNRYILRKNVGDAEGNGEPRVIHINDSLANSSFGYSDNHISTTKYNFATFLPKFLFQEFSKYANLFFLCTSAIQQVPHVSPTNRYTTIGTLLVVLIVSAMKECIEDIKRANSDKELNNSTAEIFSEAHDDFVEKRWIDIRVGDIIRVKSEEPIPADTIILSSSEPEGLCYIETANLDGETNLKIKQSRVETAKFIDVKTLKNMNGKVVSEQPNSSLYTYEGTMTLNDRQIPLSPDQMILRGATLRNTAWIFGLVIFTGHETKLLRNATATPIKRTAVEKIINRQIIALFTVLIVLILISSIGNVIMSTADAKHLSYLYLEGTNKAGLFFKDFLTFWILFSNLVPISLFVTVELIKYYQAFMIGSDLDLYYEKTDTPTVVRTSSLVEELGQIEYIFSDKTGTLTRNIMEFKSCSIAGHCYIDKIPEDKTATVEDGIEVGYRKFDDLKKKLNDPSDEDSPIINDFLTLLATCHTVIPEFQSDGSIKYQAASPDEGALVQGGADLGYKFIIRKPNSVTVLLEETGEEKEYQLLNICEFNSTRKRMSAIFRFPDGSIKLFCKGADTVILERLDDEANQYVEATMRHLEDYASEGLRTLCLAMRDISEGEYEEWNSIYNEAATTLDNRAEKLDEAANLIEKNLILIGATAIEDKLQDGVPETIHTLQEAGIKIWVLTGDRQETAINIGMSCRLLSEDMNLLIINEETRDDTERNLLEKINALNEHQLSTHDMNTLALVIDGKSLGFALEPELEDYLLTVAKLCKAVICCRVSPLQKALVVKMVKRKSSSLLLAIGDGANDVSMIQAAHVGVGISGMEGMQAARSADIAVGQFKFLKKLLLVHGSWSYQRISVAILYSFYKNTALYMTQFWYVFANAFSGQSIMESWTMSFYNLFFTVWPPFVIGVFDQFVSSRLLERYPQLYKLGQKGQFFSVYIFWGWIINGFFHSAIVFIGTILIYRYGFALNMHGELADHWSWGVTVYTTSVIIVLGKAALVTNQWTKFTLIAIPGSLLFWLIFFPIYASIFPHANISREYYGVVKHTYGSGVFWLTLIVLPIFALVRDFLWKYYKRMYEPETYHVIQEMQKYNISDSRPHVQQFQNAIRKVRQVQRMKKQRGFAFSQAEEGGQEKIVRMYDTTQKRGKYGELQDASANPFNDNNGLGSNDFESAEPFIENPFADGNQNSNRFSSSRDDISFDI
partner: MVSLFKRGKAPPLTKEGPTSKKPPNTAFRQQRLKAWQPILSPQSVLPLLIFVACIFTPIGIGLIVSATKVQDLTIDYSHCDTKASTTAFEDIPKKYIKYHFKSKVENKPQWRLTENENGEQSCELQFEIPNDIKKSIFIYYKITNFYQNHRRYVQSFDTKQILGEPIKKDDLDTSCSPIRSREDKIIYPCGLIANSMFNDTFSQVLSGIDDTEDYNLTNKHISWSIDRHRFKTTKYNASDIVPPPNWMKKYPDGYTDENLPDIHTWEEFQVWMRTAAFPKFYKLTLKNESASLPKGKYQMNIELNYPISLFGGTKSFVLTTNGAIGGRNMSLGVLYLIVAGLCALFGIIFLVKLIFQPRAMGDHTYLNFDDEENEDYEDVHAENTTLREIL

Variants of: B1
Settings: with cdc50_yeast CDC50, P25656

Effect of a mutation on the interaction, with no effect:
H1236A
Y1235A
Y1235F
